The supplement of paper PMC10065799, “High-throughput profiling of sequence recognition by tyrosine kinases and SH2 domains using bacterial peptide display” (eLife, 2023)

Assays:
Grb2 SH2 = Grb2 SH2 (UniProt P62993); experiment: SH2 binding enrichment of the phosphorylated peptide, bacterial display (enrichment ratio); higher = better substrate or ligand; peptides without Tyr show the background
c-Src SH2 = experiment: as above
SHP2-C SH2 = experiment: as above
EPHB1 = EPHB1 (UniProt P54762); experiment: phosphorylation enrichment, bacterial display (enrichment ratio); higher = better substrate or ligand; peptides without Tyr show the background
Chain of EPHB1 (P54762 whole entry, looked up): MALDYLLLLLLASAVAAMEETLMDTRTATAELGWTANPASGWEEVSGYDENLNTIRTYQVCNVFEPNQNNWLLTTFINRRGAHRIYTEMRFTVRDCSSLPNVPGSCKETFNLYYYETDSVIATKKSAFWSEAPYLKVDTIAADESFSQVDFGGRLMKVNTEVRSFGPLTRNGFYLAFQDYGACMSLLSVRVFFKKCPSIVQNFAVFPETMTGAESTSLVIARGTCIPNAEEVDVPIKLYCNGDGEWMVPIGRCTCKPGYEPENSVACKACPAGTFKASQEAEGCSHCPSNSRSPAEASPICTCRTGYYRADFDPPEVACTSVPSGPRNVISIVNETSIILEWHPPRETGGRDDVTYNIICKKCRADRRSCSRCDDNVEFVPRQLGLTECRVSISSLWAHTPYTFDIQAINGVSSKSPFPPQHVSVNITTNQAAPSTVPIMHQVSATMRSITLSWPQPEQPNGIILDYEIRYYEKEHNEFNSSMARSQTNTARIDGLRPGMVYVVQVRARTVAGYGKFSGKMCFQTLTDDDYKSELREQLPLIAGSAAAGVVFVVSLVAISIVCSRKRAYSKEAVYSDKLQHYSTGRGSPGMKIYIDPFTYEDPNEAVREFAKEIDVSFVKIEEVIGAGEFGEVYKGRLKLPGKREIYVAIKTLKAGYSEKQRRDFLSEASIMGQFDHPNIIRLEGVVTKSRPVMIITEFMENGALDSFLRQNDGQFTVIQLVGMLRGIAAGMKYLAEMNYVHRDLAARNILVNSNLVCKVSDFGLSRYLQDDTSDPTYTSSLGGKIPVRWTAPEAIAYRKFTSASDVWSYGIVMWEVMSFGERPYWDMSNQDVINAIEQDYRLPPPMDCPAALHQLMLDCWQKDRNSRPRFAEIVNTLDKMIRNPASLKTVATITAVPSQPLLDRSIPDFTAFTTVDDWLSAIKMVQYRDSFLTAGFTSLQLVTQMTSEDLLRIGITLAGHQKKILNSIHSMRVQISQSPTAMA

EPHB2 = EPHB2 (UniProt P29323); experiment: as above
FGFR1 = FGFR1 (UniProt P11362); experiment: as above
AncSZ = experiment: as above
c-Abl (mouse) = experiment: as above
Hck = Hck (UniProt P08631); experiment: as above
Fer (mouse) = experiment: as above
Jak2 = Jak2 (UniProt O60674); experiment: as above
Chain of Jak2 (O60674 whole entry, looked up): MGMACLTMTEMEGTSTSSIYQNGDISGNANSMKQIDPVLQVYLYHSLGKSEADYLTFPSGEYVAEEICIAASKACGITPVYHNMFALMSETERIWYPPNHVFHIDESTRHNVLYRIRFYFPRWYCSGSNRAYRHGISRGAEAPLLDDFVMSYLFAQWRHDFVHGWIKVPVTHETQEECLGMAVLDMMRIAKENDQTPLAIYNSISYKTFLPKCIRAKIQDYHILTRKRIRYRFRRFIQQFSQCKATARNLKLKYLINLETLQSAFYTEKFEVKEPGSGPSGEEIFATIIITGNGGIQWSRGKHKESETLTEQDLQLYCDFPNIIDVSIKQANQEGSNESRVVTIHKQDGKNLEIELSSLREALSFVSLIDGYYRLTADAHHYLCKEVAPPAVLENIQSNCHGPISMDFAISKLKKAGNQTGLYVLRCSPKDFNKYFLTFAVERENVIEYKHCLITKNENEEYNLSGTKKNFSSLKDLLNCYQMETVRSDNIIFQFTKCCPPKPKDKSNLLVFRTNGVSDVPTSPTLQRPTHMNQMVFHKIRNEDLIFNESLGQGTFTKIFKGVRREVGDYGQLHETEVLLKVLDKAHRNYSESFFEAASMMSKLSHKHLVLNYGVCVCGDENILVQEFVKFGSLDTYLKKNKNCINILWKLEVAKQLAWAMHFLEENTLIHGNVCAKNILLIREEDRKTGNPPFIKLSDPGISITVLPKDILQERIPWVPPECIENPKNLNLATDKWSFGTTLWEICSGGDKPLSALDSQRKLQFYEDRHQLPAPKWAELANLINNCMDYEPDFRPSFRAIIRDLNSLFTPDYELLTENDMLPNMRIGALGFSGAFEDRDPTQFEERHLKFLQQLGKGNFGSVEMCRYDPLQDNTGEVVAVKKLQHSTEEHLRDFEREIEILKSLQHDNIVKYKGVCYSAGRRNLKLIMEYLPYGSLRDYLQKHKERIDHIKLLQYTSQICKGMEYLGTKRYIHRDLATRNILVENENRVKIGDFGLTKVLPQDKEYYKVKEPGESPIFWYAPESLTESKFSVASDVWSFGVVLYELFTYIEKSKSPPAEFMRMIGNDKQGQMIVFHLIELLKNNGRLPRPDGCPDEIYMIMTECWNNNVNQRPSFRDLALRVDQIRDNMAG

MERTK = MERTK (UniProt Q12866); experiment: as above
Chain of MERTK (Q12866 whole entry, looked up): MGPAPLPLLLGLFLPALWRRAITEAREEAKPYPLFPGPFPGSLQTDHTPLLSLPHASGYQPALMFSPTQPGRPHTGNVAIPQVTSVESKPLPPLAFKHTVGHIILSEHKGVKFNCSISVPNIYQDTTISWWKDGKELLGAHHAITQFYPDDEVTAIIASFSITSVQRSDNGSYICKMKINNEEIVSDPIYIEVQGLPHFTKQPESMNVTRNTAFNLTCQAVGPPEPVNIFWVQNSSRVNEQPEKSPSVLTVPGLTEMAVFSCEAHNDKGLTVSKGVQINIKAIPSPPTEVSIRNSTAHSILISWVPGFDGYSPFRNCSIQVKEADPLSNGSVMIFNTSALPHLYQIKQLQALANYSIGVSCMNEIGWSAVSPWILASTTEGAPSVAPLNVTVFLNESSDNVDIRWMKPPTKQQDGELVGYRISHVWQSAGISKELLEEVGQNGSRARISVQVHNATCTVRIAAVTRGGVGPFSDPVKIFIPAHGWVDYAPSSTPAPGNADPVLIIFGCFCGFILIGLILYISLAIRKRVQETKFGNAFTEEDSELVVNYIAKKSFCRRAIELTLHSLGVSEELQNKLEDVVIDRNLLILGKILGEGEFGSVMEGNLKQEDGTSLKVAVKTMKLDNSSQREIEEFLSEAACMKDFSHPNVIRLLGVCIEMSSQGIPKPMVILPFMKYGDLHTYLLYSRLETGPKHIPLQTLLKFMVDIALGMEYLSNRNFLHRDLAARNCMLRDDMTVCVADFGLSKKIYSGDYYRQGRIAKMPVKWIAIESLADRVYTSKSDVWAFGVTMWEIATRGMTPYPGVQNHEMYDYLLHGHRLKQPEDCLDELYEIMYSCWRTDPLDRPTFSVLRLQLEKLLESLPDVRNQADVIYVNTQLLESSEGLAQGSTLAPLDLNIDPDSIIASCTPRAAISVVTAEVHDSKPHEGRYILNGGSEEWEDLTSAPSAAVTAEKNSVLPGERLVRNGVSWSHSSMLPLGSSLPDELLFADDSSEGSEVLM

c-Src = experiment: as above
Fes = Fes (UniProt P07332); experiment: as above
Chain of Fes (P07332 whole entry, looked up): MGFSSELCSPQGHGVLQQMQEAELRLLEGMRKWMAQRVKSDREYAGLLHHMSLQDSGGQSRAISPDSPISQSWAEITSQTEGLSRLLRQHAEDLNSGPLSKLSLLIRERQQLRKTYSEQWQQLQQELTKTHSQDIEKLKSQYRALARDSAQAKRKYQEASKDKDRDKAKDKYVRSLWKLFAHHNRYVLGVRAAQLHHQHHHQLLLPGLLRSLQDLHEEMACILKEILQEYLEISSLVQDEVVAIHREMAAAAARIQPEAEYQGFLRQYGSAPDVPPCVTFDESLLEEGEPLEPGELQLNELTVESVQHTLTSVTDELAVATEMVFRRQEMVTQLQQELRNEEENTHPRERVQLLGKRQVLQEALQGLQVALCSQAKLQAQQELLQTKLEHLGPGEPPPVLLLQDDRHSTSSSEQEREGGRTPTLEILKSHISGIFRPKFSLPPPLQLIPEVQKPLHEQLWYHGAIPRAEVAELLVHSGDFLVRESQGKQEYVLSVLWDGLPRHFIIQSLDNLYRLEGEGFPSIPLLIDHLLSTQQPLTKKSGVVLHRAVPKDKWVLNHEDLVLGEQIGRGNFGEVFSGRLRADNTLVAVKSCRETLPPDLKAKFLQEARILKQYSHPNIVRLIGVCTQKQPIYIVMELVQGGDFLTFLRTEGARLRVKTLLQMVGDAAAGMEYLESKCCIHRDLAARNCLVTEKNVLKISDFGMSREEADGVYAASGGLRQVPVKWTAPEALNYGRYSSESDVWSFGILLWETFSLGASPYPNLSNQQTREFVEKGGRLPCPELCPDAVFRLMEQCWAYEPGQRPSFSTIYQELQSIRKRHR

Fyn = Fyn (UniProt P06241); experiment: as above
FGFR3 = FGFR3 (UniProt P22607); experiment: as above
Chain of FGFR3 (P22607 whole entry, looked up, the tested form may be a part): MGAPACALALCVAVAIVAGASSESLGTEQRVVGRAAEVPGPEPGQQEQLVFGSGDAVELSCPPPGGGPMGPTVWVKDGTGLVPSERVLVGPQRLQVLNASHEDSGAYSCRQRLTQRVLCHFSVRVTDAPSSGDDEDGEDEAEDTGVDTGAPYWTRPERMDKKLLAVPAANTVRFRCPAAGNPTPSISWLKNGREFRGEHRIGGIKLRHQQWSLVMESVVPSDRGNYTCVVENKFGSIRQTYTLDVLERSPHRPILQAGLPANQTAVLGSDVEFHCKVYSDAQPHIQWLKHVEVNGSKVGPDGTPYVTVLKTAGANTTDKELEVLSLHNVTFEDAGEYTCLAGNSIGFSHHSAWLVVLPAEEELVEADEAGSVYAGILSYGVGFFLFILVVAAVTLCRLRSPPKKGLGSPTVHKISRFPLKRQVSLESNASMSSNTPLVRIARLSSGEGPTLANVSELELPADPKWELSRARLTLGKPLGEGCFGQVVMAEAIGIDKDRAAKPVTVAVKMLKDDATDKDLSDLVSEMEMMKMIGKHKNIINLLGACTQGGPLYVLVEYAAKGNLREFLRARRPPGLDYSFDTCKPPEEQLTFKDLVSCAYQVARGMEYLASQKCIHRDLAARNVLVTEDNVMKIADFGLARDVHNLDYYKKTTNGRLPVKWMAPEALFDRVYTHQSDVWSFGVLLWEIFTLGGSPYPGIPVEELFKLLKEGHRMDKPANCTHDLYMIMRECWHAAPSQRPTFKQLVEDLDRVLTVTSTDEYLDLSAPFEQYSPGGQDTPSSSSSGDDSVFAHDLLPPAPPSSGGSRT
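Throughout, for SH2 binding enrichment of the phosphorylated peptide, bacterial display: peptide library displayed on the E. coli surface as eCPX fusions, selected cells deep-sequenced, score is each peptide's frequency after selection divided by its frequency in the input.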
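Throughout, for phosphorylation enrichment, bacterial display: 11-residue human phosphosite peptides and single-mutation variants displayed on the E. coli surface, counted by deep sequencing, each peptide's frequency after selection divided by its frequency in the unselected input library; frequency after pTyr selection over input frequency; kinase dosed for 20-30% of maximal phosphorylation in three min.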

Chain of Grb2 SH2 (P62993 whole entry, looked up): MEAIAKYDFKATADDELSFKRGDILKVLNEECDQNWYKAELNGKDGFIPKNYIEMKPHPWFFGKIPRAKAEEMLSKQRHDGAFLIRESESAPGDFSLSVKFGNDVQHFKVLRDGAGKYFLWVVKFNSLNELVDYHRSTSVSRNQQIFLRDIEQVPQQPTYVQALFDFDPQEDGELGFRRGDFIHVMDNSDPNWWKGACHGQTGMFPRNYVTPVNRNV

| Sequence | SH2 binding enrichment (Grb2 SH2) | SH2 binding enrichment (c-Src SH2) | SH2 binding enrichment (SHP2-C SH2) | phosphorylation enrichment (EPHB1) | phosphorylation enrichment (EPHB2) | phosphorylation enrichment (FGFR1) | phosphorylation enrichment (AncSZ) | phosphorylation enrichment (c-Abl (mouse)) | phosphorylation enrichment (Hck) | phosphorylation enrichment (Fer (mouse)) | phosphorylation enrichment (Jak2) | phosphorylation enrichment (MERTK) | phosphorylation enrichment (c-Src) | phosphorylation enrichment (Fes) | phosphorylation enrichment (Fyn) | phosphorylation enrichment (FGFR3) |
| --- | --- | --- | --- | --- | --- | --- | --- | --- | --- | --- | --- | --- | --- | --- | --- | --- |
| KSAAIYNPVIF [RHO_Y301_YF] | 0.721 | 0.589 | 0.75 | 0.559 | 0.519 | 0.567 | 0.757 | 1.11 | 8.01 | 16.1 | 0.634 | 4.6 | 4.71 | 0.939 | 5.56 | 0.557 |
| KSIQLYDTPYE [SHB_Y297_G293S] | 1.02 | 4.1 | 0.626 | 11.6 | 15.8 | 0.521 | 1.29 | 1.03 | 1.76 | 3.02 | 0.921 | 4.79 | 0.986 | 1.07 | 0.827 | 0.643 |
| KTGDFYDLFGG [PTPN11_Y63_N58K_YF] | 0.93 | 0.628 | 0.781 | 0.577 | 0.463 | 0.523 | 0.956 | 0.627 | 2.04 | 0.716 | 0.781 | 2.74 | 2.65 | 0.879 | 3.14 | 0.6 |
| KTKLGYSPLHQ [ANK1_Y735] | 1.2 | 0.849 | 1.05 | 0.296 | 0.326 | 0.31 | 0.454 | 0.691 | 0.322 | 0.354 | 0.397 | 0.399 | 0.369 | 0.48 | 0.373 | 0.385 |
| KWHREYNSKYV [RICTOR_Y835] | 1.47 | 1.14 | 1.31 | 0.348 | 0.401 | 0.37 | 0.461 | 0.461 | 0.371 | 0.32 | 0.513 | 0.339 | 0.294 | 0.414 | 0.398 | 0.42 |
| KWRGQYDVAIK [BTK_Y425] | 1.34 | 1.21 | 0.935 | 0.399 | 0.642 | 0.527 | 0.676 | 0.802 | 0.479 | 0.429 | 0.543 | 0.463 | 0.567 | 0.742 | 0.491 | 0.546 |
| KYVVVYFREID [IL17RB_Y447] | 1.62 | 1.37 | 2.88 | 0.578 | 0.545 | 0.513 | 1.61 | 1.01 | 0.499 | 0.591 | 1.51 | 0.471 | 0.626 | 1.66 | 0.486 | 0.867 |
| LADKPYTFEDF [FXN_Y118_YF] | 1.1 | 0.708 | 0.954 | 1.43 | 1.86 | 2.21 | 2.9 | 0.738 | 1.26 | 1.96 | 0.988 | 1.39 | 3.9 | 2.52 | 7.15 | 2 |
| LADKPYTFEDY [FXN_Y118] | 0.758 | 0.446 | 0.588 | 0.736 | 1.04 | 0.955 | 2.03 | 1.55 | 0.945 | 0.832 | 1.92 | 2.31 | 6.91 | 1.74 | 3.63 | 1.14 |
| LARDMHDKEYY [MET_Y1230_Y1230H] | 0.625 | 0.395 | 0.962 | 0.469 | 0.507 | 0.46 | 0.763 | 0.395 | 0.385 | 0.426 | 0.628 | 0.404 | 0.425 | 0.678 | 0.445 | 0.589 |
| LDFPEYNGVDR [CASQ1_Y43_D44N] | 0.541 | 0.975 | 0.646 | 1.09 | 1.04 | 0.986 | 2.84 | 1.95 | 1.16 | 1 | 3.51 | 2.17 | 2.17 | 3.29 | 1.43 | 1.61 |
| LENSTYQFIHV [CRB1_Y760_R764H_YF] | 0.94 | 0.456 | 0.652 | 9.73 | 2.92 | 7.91 | 1.77 | 1.56 | 8.87 | 24.8 | 1.19 | 10 | 4.21 | 2.22 | 3.24 | 4.82 |
| LEQQKYTVTVD [IKBKB_Y199] | 0.804 | 0.567 | 0.616 | 0.566 | 0.746 | 0.647 | 1.21 | 0.634 | 0.726 | 0.674 | 0.954 | 0.71 | 0.593 | 1.98 | 0.706 | 1.06 |
| LERYIYNREEF [HLA-DPB1_Y59] | 0.956 | 0.634 | 0.698 | 0.756 | 1.22 | 0.564 | 1.05 | 0.757 | 1.56 | 0.587 | 0.874 | 0.629 | 2.63 | 1.24 | 1.26 | 1.18 |
| LFFFSYLLKNH [PTEN_Y180_V175L_YF] | 0.901 | 0.769 | 0.696 | 0.443 | 0.976 | 0.577 | 1.39 | 1.66 | 0.705 | 0.672 | 2.28 | 0.584 | 1 | 1.98 | 0.346 | 0.671 |
| LFLASYCIGGG [UBD_Y161_C160S] | 0.847 | 0.521 | 0.815 | 0.655 | 0.788 | 1.06 | 1.22 | 0.886 | 0.533 | 0.671 | 1.21 | 0.537 | 0.495 | 1.63 | 0.416 | 1.04 |
| LFNQDYPIHSV [GATM_Y227_YF] | 1.21 | 0.432 | 0.725 | 1.46 | 0.787 | 3.19 | 2.31 | 0.984 | 1.07 | 1.24 | 0.707 | 0.796 | 0.81 | 2.09 | 1.01 | 2 |
| LHRAHYDLRHT [AHSG_Y314] | 1.83 | 1.19 | 1.6 | 0.668 | 0.78 | 0.707 | 0.621 | 0.908 | 0.876 | 0.8 | 0.725 | 0.418 | 0.556 | 1.11 | 0.617 | 1.1 |
| LHSEAYLKFNE [PBRM1_Y1610_I1614N_YF] | 1.34 | 0.539 | 1 | 0.438 | 0.651 | 0.72 | 1.53 | 0.922 | 0.488 | 0.493 | 1.06 | 0.737 | 0.707 | 1.31 | 1.05 | 0.945 |
| LIDGYYRLTAD [JAK2_Y373] | 0.72 | 4.65 | 9.03 | 1.88 | 2.08 | 11.5 | 2.46 | 1 | 1.87 | 1.54 | 10.4 | 0.961 | 0.899 | 2.59 | 1.71 | 5.24 |
| LIDSSYLTPTA [GREB1L_Y1063_R1066P] | 1.2 | 0.717 | 0.595 | 0.569 | 0.498 | 0.596 | 0.919 | 0.871 | 0.684 | 0.423 | 0.8 | 0.511 | 0.421 | 1.15 | 0.409 | 0.825 |
| LIFTNYEVGKD [GSTP1_Y112_A114V_YF] | 0.887 | 0.739 | 0.784 | 1.58 | 1.78 | 1.17 | 2.14 | 1.3 | 1.1 | 1.17 | 1.94 | 0.983 | 0.825 | 2.21 | 1.18 | 1.46 |
| LIGRGYDDPEV [HSPA9_Y128_R127G] | 0.772 | 2.39 | 0.635 | 0.695 | 0.802 | 0.828 | 1.54 | 0.756 | 0.931 | 0.669 | 0.868 | 0.602 | 0.567 | 1.88 | 0.975 | 0.894 |
| LIGTPYWMAPE [PAK5_Y608_V604I] | 1.23 | 0.882 | 3.03 | 1.4 | 1 | 4.64 | 1.74 | 0.987 | 1 | 0.917 | 1.17 | 1.32 | 2.6 | 1.51 | 0.825 | 3.65 |
| LIHLHYIRKDF [BBS4_Y43_YF] | 2.06 | 1.6 | 2.75 | 1.17 | 1.01 | 0.937 | 1.51 | 0.612 | 0.637 | 0.984 | 0.787 | 0.471 | 0.527 | 1.18 | 0.871 | 1.22 |
| LIHTKCPQLLP [AHCY_Y143_Y143C] | 0.941 | 0.714 | 0.762 | 0.516 | 0.607 | 0.509 | 0.693 | 0.604 | 0.509 | 0.46 | 0.654 | 0.476 | 0.433 | 0.936 | 0.438 | 0.631 |
| LIQRNYKLTAQ [ALPK2_Y1975_A1978T] | 1.24 | 0.532 | 0.952 | 0.479 | 0.604 | 0.465 | 0.86 | 1.2 | 0.507 | 0.393 | 1.24 | 0.567 | 0.706 | 1.12 | 0.462 | 0.511 |
| LKALHYMAQTS [SACS_Y3367_V3369A] | 0.861 | 0.609 | 0.707 | 0.759 | 0.634 | 0.765 | 0.89 | 0.907 | 0.623 | 0.746 | 0.751 | 0.749 | 0.587 | 0.94 | 0.705 | 0.887 |
| LKFAIYFEARE [LAMA2_Y1258_YF] | 1.08 | 0.352 | 0.756 | 1.78 | 0.983 | 1.41 | 1.45 | 1.06 | 0.736 | 0.884 | 1.1 | 0.845 | 0.345 | 2.6 | 1.29 | 2.05 |
